Experimental data: patent US20110065645A1, “Compositions and Methods for Modulating Neuron Degeneration and Neuron Guidance” (The Regents of the University of California, priority 2009, published 2011)

Experiments:
[1] = target: Fzd3-EGFP (mouse) (UniProt Q61086); experiment: cell-based or functional assay
[2] = system: PKA; experiment: Western blot of activated phospho-PKA (Thr197) in dissociated commissural neurons; format: cell-based, rat; conditions: Shh-N 2.5 μg/ml for one hour; KT5720 25 μM for 15 minutes
Procedure: To confirm that PKA activity can be reduced in commissural neurons exposed to Shh, we treated dissociated spinal cord commissural neurons with Shh and analyzed the level of activated PKA. 24 hr after plating, commissural neurons were serum starved overnight and then treated with 2.5 μg/ml (150 nM) of Shh-N recombinant protein (R&D) for one hour prior to lysate collection. Forskolin (25 μM), and the PKA inhibitor, KT5720 (25 μM) were added to the commissural neuron culture as controls for 15 minutes before lysis. We then tested these lysates for levels of activated PKA with an antibody that specifically recognizes an activated form of the catalytic domain of PKA (phosphorylated at Thr197).
Dissociated commissural neuronal culture. Spinal cords were isolated from rat E13 embryos and commissural neurons were dissociated as previously described.^(8) In brief, embryos were treated with Dispase I (0.25 mg/ml; D4818, Sigma) for 5 minutes prior isolation of spinal cords, followed by collection of spinal cord dorsal domains by microdissection and incubation with Trypsin (1 mg/ml; T47-99, Sigma) for 10-12 min in a 37° C. water bath. The tissue was then triturated with flamed glass pipettes and a single cell suspension was plated on poly-D-lysine (PDL; 20 μg/ml) and laminin (10 μg/ml) coated coverslips or 12 well plates (Corning). More than 90% cells in these cultures express TAG-1, a marker for spinal cord commissural neurons (FIG. 35B). 10^5 dissociated cells were plated on PDL/laminin coated coverslips and cultured for 24 hrs before processed for immunohistochemistry as described above. For Western blot analysis, 10^6 dissociated cells were plated on PDL/laminin coated 12-well tissue culture plates and cultured initially for 24 hrs in dorsal explant media (replenished daily) then changed to low serum medium overnight prior to treatments. […]

[3] = target: Fzd3-mCherry (mouse) (UniProt Q61086); experiment: cell-based or functional assay
[4] = system: TH axons; experiment: mdDA explant assay with Wnt-expressing cell clumps, anti-TH staining; format: cell-based; conditions: embryonic mdDA explants from ventral midbrain
Excerpt: FIG. 7. Multiple Wnts attract TH axons in explant assays. FIG. 7 depicts histogram showing that embryonic mdDA explants dissected out from the ventral midbrain and cultured with cell clumps expressing various Wnts.
3c: Use of explant assays to test the effects of Wnts on mdDA and 5-HT axon growth and guidance. To directly address whether Wnts regulate the guidance of these monoaminergic axons, we use explant assays to test the function of the identified Wnts and determine whether they are attractive or repulsive. […] We plan to continue test additional Wnts especially those which are expressed in the brainstem and the forebrain targets using the same assay.

[5] = system: β-catenin; experiment: β-catenin immunostaining in commissural axon growth cones; format: cell-based; conditions: bath application; LiCl 2 mM
Excerpt: To understand how atypical PKC/Par pathway regulates axon guidance, we set out to determine the subcellular localization of aPKC, their substrates and downstream cellular effectors. […] Thus, our high-resolution confocal imaging detects a tendency of β-catenin being concentrated to one side of the growth cone (FIG. 9A). It is possible that there is low level of Wnt proteins in the culture (many neurons express Wnts). […] Therefore, it is also possible that intrinsic aPKC signaling can create chirality within the growth cone with out extrinsic signals. Such intrinsic polarity may then robustly regulate cellular morphology upon directional instructions from the environment such as a Wnt gradient. It is well known that GSK3β phosphorylates β-catenin, which then leads to proteosome-mediated degradation of β-catenin. And it is also known that GSK3β is phosphorylated and inhibited by PKCζ^(1,2). Therefore, inhibiting GSK3β or the proteosome activity generally should increase β-catenin level throughout the growth cone, canceling the asymmetry. […] We are now testing the hypothesis that Wnt proteins may locally activate PKCζ, which then inhibits GSK3β and locally stabilizes β-catenin, which is part of the asymmetric cellular mechanism leading to directional choice of a growth cone. We examine the localization of β-catenin in post-crossing commissural axon growth cones in the “post-crossing” assay and “open-book” assays.

Chain of Fzd3-EGFP (mouse) (Q61086 23-666): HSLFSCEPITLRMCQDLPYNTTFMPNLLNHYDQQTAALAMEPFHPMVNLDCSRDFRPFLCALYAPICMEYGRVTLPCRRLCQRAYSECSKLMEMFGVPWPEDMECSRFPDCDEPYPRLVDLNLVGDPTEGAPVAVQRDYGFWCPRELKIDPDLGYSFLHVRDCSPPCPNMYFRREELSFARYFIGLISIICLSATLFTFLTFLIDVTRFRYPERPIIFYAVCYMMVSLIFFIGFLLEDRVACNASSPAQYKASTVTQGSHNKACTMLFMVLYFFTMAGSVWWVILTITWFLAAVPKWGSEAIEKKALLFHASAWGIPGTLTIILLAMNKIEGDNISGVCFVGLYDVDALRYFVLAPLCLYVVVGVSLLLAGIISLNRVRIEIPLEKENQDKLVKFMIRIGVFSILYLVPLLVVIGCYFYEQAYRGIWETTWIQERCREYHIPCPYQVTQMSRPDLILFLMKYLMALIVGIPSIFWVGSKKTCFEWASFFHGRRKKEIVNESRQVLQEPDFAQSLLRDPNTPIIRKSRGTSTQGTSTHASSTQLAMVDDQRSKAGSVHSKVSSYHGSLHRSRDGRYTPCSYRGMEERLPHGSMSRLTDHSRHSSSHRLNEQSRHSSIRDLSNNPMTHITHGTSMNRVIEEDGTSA
Chain of Fzd3-mCherry (mouse) (Q61086 23-666): as above

## recombinant Wnt5a (R&D Systems) (ligand)
[1]
  commissural axon length after 24 hours on Wnt5a-coated coverslips: 36%

## c1ccc2c(Oc3nc(Nc4ccc(N5CCOCC5)cc4)c4ncn(C5CCCCC5)c4n3)cccc2c1 [Purmorphamine, reference compound]
[2]
  level of activated PKA: reduce the level of activated PKA

## Dvl1-EGFP (from UniProt P51141 1-695)
[3]
  Fzd3 level at the cell membrane (surface biotinylation, avidin IP, anti-mCherry IB) in HEK293T cells: 3 fold

B1: Wnt7b: Wnt family protein expressed by cell clumps in the TH axon explant assay (protein, UniProt P56706 25-349, looked up)
Protein Wnt-7b: ALSSVVALGANIICNKIPGLAPRQRAICQSRPDAIIVIGEGAQMGINECQYQFRFGRWNCSALGEKTVFGQELRVGSREAAFTYAITAAGVAHAVTAACSQGNLSNCGCDREKQGYYNQAEGWKWGGCSADVRYGIDFSRRFVDAREIKKNARRLMNLHNNEAGRKVLEDRMQLECKCHGVSGSCTTKTCWTTLPKFREVGHLLKEKYNAAVQVEVVRASRLRQPTFLRIKQLRSYQKPMETDLVYIEKSPNYCEEDAATGSVGTQGRLCNRTSPGADGCDTMCCGRGYNTHQYTKVWQCNCKFHWCCFVKCNTCSERTEVFTCK
[4]
  attraction of TH axons: attracts the TH-positive neuron axons

B2: Wnt3a: purified Wnt3a protein; also expressed by cell clumps in explant assays (protein, UniProt P56704 19-352, looked up)
Protein Wnt-3a: SYPIWWSLAVGPQYSSLGSQPILCASIPGLVPKQLRFCRNYVEIMPSVAEGIKIGIQECQHQFRGRRWNCTTVHDSLAIFGPVLDKATRESAFVHAIASAGVAFAVTRSCAEGTAAICGCSSRHQGSPGKGWKWGGCSEDIEFGGMVSREFADARENRPDARSAMNRHNNEAGRQAIASHMHLKCKCHGLSGSCEVKTCWWSQPDFRAIGDFLKDKYDSASEMVVEKHRESRGWVETLRPRYTYFKVPTERDLVYYEASPNFCEPNPETGSFGTRDRTCNVSSHGIDGCDLLCCGRGHNARAERRREKCRCVFHWCCYVSCQECTRVYDVHTCK
[5]
  β-catenin level and asymmetry in the growth cone: increased the levels of β-catenin throughout the growth cone
[4]
  attraction of TH axons: strongest effect
